Data: PMC4939959

Molecular target: Prototype foamy virus (PFV) Env glycoprotein, wild type, fully processed (gp18^LP, gp80^SU, gp48^TM), trimeric spike in the viral membrane (Prototype foamy virus (PFV)) (UniProt P14351)
Test: cryo-electron tomography with subtomogram averaging; Env in situ in the membrane of purified virus particles (wt fixed with 4% paraformaldehyde, iNAB, iFuse), plunge-frozen; single spike, 3-fold symmetry seen in the asymmetric average and then enforced; 3.2, 2.9 and 2.8 nm at FSC = 0.5; step: Env protomers in the trimeric spike

Substance “Prototype foamy virus (PFV) Env glycoprotein, wild type, fully processed (gp18^LP, gp80^SU, gp48^TM), trimeric spike in the viral membrane (from UniProt P14351 1-126; P14351 1-126; P14351 1-126) (complex)” has a stoichiometry N of 3.
